From patent US20220235344A1, “TRYPSIN VARIANTS WITH IMPROVED ENZYMATIC PROPERTIES” (BIOPHARMA TRANSLATIONSINSTITUT DESSAU FORSCHUNGS GMBH, priority 2018, published 2022)

Legend:
Assay type in all cases: biochemical
[1] = system: Bz-PGGYRAHAG-OH (acyl donor) / H-RAHAK(DNP)-OH (acyl acceptor); test: Maximum product yield of transamidation (Table 7); settings: Zinc ions (100 μM): no; two equivalents of acyl acceptor and 250 μM acyl donor
Method: (§1) Model transamidation reactions were performed in a solution containing 15 to 250 μM acyl donor, 2 eq. of the corresponding acyl acceptor, varying concentrations of trypsin variant, 100 mM HEPES/NaOH pH 7.8, ±0.1 mM ZnC12, 100 mM NaCl, 10 mM CaCl2) at 30° C. Acyl donor and acyl acceptor had the same amino acids in P1′-P3′ position, e.g. Bz-[…]+H-RAHAK-OH or Bz-[…]+H-RKKAK-OH. Variations are indicated. The acyl acceptor could be equipped with a 2,4-Dinitrophenyl group (DNP) at the side chain of the terminal lysine, e.g. H-RAHAK(DNP)-OH or H-RKKAK(DNP)-OH. The reactions were started by the addition of enzyme. To record the time course of product formation and/or for kinetic evaluation of the reaction several aliquots of the reaction mixture were quenched with 25% (v/v) acetic acid at distinct time points within up to 4 hours. The composition of the reaction mixture was analyzed by UPCL with method I or II, depending on the absence (method 1) or presence (method II) of a 2,4-dinitrophenyl group within the acyl acceptor (see example 1). Measurements were performed as duplicates and errors were less than 5%.

[2] = system: H-RAHAK(DNP)-OH (acyl acceptor), acyl donor Bz-PGGYRAHAG-OH; test: KM value of the nucleophilic peptide (acyl acceptor); settings: for Km: Zinc ions: no, 250 μM Bz-PGGYRAHAG-OH, varying H-RAHAK(DNP)-OH
Method: For Trypsiligase II the measurements for KM values of the nucleophilic peptide (acyl acceptor) were carried out in the presence or absence of zinc ions due to its strong zinc ion dependency. In case of variant A2C8 measurements were carried out in the absence of zinc ions.
Transamidation reactions with Trypsiligase II and variant A2C8 were performed in a solution containing 250 μM of the acyl donor Bz-[…]-OH, varying concentrations of the acyl acceptor H-RAHAK(DNP)-OH (0-5000 μM for Trypsiligase II in the absence of zinc ions, 0-1500 μM for Trypsiligase II in the presence of zinc ions, 0-1000 μM for variant A2C8), 0.2-1.5 μM trypsin variant, 100 mM HEPES/NaOH pH 7.8, ±0.1 mM ZnCl2, 100 mM NaCl, 10 mM CaCl2 at 30° C. The reaction was started by the addition of enzyme. For kinetic evaluation of the reaction several aliquots of the reaction mixture were quenched with 25% (v/v) acetic acid at distinct time points within 30 minutes. The composition of the reaction mixture was analyzed by UPCL using method II (see example 1). UV absorption of the 2,4-Dinitrophenyl group (DNP), which is present in the acyl acceptor as well as in the aminolysis product, was detected at 360 nm. To determine the KM value of the nucleophilic peptide the initial rates for the aminolysis reaction were plotted against the corresponding acyl acceptor concentration and fitted to the Michaelis Menten equation. Measurements were performed as duplicates and errors were less than 5%.

[3] = system: Bz-PGGYRKHAG-OH / RKHAK-OH (YRKH substrate); test: Enzymatic activity and maximum product yield of Trypsiligase II-library variants, YRKH substrate; settings: for PPmax vs YRAH (%): 100 μM Bz-PGGYR(A/K)HAG-OH, 200 μM R(A/K)HAK-OH, 100 μM ZnCl2, pH 7.8, 30° C.
Method: as §1
(§2) On the basis of these investigations the mutated positions of these two variants 2G10 and 1C11 have been combined in a new enzyme library based on trypsin variant Y39H/Y59H/K60E/D189K (Trypsiligase II), so that the variants resulting from this library benefit from both positive effects and are thus further optimized. Accordingly, positions 40, 55, 96, 97, 143, 151, 190, 192, 214, 219 and 221 were randomized in this Trypsiligase II library, while the mutation L99F was fixed because it was present in both Trypsiligase I libraries A and B. Positions 143 and 151 in Trypsiligase I are responsible for zinc complexation and thus convey histidine specificity for the recognition sequence YRH. In Trypsiligase II, this histidine specificity is shifted by positions 39 and 59, resulting in the recognition sequence YRAH. Thus, positions 143 and 151, which are potentially responsible for P2′ position specificity, are available for randomization in the Trypsiligase II library. In addition to the desired effect of increasing the affinity to the substrate/nucleophile, this could also lead to a possible independence of zinc complexation, which would be desirable with regard to the application-oriented modification of recombinant proteins. Using phage display and an ELISA-based screening, the Trypsiligase II variants illustrated in Table 3 and 4 have been identified.

[4] = system: Bz-PGGYRAHAG-OH / RAHAK-OH (YRAH substrate); test: Enzymatic activity and maximum product yield of Trypsiligase II-library variants, YRAH substrate; settings: for AS A[YRAH]/AS A + H[YRAH] / YRAH/YRKH, quotient of max. product yield for YRAH subtrate/YRKH substrate: Table 3; for Pmax vs YRAH (%): Table 3, first column group
Method: as §1, §2

[5] = 100 μM Bz-PGGYR(A/K)HAG-OH, 200 μM R(A/K)HAK-OH, 100 μM ZnCl2, pH 7.8, 30° C.
[6] = Table 3, group (YRAH), 100 μM ZnCl2

Row | Molecule | product yield (%) [1] | Km [2] | AS A/H, quotient of aminolysis/hydrolysis activity ([3]; Table 3) | PPmax vs YRAH (%) ([3]; Table 3) | AS[AL] (mkat/moL), specific aminolysis activity ([3]; Table 3, 100 μM ZnCl2) | AS[HL] (mkat/moL), specific hydrolysis activity ([3]; Table 3, 100 μM ZnCl2) | AS A[YRAH]/AS A + H[YRAH] [4] | YRAH/YRKH, quotient of max. product yield for YRAH subtrate/YRKH substrate [4] | Pmax vs YRAH (%) [4, 5] | AS A/H, quotient of aminolysis/hydrolysis activity ([4]; Table 3, group (YRAH)) | AS[AL] (mkat/mol), specific aminolysis activity [4, 6] | AS[HL] (mkat/mol), specific hydrolysis activity [4, 6] | further results
1 | Trypsiligase II (trypsin variant Y39H/Y59H/K60E/D189K) (protein) IVGGYTCQENSVPYQVSLNSGHHFCGGSLINDQWVVSAAHCHESRIQVRLGEHNINVLEGNEQFVNAAKIIKHPNFDRKTLNNDIMLIKLSSPVKLNARVATVALPSSCAPAGTQCLISGWGNTLSSGVNEPDLLQCLDAPLLPQADCEASYPGKITDNMVCVGFLEGGKKSCQGDSGGPVVCNGELQGIVSWGYGCALPDNPGVYTKVCNYVDWIQDTIAAN | 4.2% | 1630 µM | 0.0 | 1.5% | 0.5 mkat/moL | 16.3 mkat/moL | 0.1 | 6.0 | 8.9% | 0.3 | 2.4 mkat/mol | 7.8 mkat/mol | AS A/H, quotient of aminolysis/hydrolysis activity ([3]; Table 4): 0.0; AS A[YRAH]/AS A + H[YRAH] ([3]; Table 4): 0.0; YRAH/YRKH, quotient of max. product yield ([3]; Table 4): 0.2; PPmax vs YRAH (%) ([3]; Table 4): 1.5%; AS[AL] (mkat/mol), specific aminolysis activity ([3]; Table 4, 100 μM ZnCl2): 0.5 mkat/mol; AS[HL] (mkat/mol), specific hydrolysis activity ([3]; Table 4, 100 μM ZnCl2): 16.3 mkat/mol; AS A/H, quotient of aminolysis/hydrolysis activity ([4]; Table 4): 0.3; PPmax vs YRAH (%) ([4]; Table 4, 100 μM Bz-PGGYR(A/K)HAG-OH, 200 μM R(A/K)HAK-OH, 100 μM ZnCl2, pH 7.8, 30° C.): 8.9%; AS[AL] (mkat/moL), specific aminolysis activity ([4]; Table 4, 100 μM ZnCl2): 2.4 mkat/moL; AS[HL] (mkat/moL), specific hydrolysis activity ([4]; Table 4, 100 μM ZnCl2): 7.8 mkat/moL
2 | A2C8: Trypsiligase II + H40F, A55A, R96E, K97D, L99F, N143E, E151Y, S190V, Q192A, S214G, G219Q, A221T (protein) IVGGYTCQENSVPYQVSLNSGHFFCGGSLINDQWVVSAAHCHESRIQVRLGEHNINVLEGNEQFVNAAKIIKHPNFDEDTFNNDIMLIKLSSPVKLNARVATVALPSSCAPAGTQCLISGWGETLSSGVNYPDLLQCLDAPLLPQADCEASYPGKITDNMVCVGFLEGGKKVCAGDSGGPVVCNGELQGIVGWGYQCTLPDNPGVYTKVCNYVDWIQDTIAAN | 59.7% | 17.6 µM | 6.9 | 51.3% | 8.9 mkat/moL | 1.3 mkat/moL | 1.6 | 1.0 | 53.1% | 10.9 | 15.8 mkat/mol | 1.5 mkat/mol | improvement of the enzyme affinity for the nucleophilic peptide versus native Trypsiligase II (factor) ([2]; Trypsiligase II in the absence of zinc ions): 92; improvement of the enzyme affinity for the nucleophilic peptide versus native Trypsiligase II (factor) ([2]; Trypsiligase II in the presence of zinc ions): 8
